{"source": "patent US10052364B2", "about": "“Osteocalcin as a treatment for cognitive disorders” (THE TRUSTEES OF COLUMBIA UNIVERSITY IN THE CITY OF NEW YORK, priority 2013, dated 2018)", "molecules": {"B1": {"name": "uncarboxylated osteocalcin: Recombinant osteocalcin bacterially produced, cleaved from the GST subunit; completely undercarboxylated at all three sites (protein, listed as Homo sapiens)", "chain": "MRALTLLALLALAALCIAGQAGAKPSGAESSKGAAFVSKQEGSEVVKRPRRYLYQWLGAPVPYPDPLEPRREVCELNPDCDELADHIGFQEAYRRFYGPV", "modifications": "uncarboxylated", "notes": "Recombinant osteocalcin bacterially produced, cleaved from the GST subunit; completely undercarboxylated at all three sites"}}, "key": {"[1]": {"system": "brainstem and midbrain explants from WT and Gprc6a-/- mice", "assay": "Gene expression (qPCR) in brainstem and midbrain explants", "assay_type": "cell-based, mouse", "description": "For gene expression studies, RNA was isolated from primary neurons or tissue using TRIZOL® (Invitrogen). cDNA synthesis was performed following a standard protocol from Invitrogen and qPCR analyses were done using specific quantitative PCR primers from SABiosciences (www.sabiosciences.com/RT2PCR.php).\nBrains were dissected and incubated for 30 minutes in ice cold oxygenated artificial cerebrospinal fluid (ACSF). Brains were then sliced at 500 μm at the midbrain, −1.55 to −2.35 mm from the bregma, and at the level of the brainstem, from −4.04 to −4.48 mm and from −4.60 to −5.20 mm from the bregma, to include the median and dorsal raphe, respectively. These slices were incubated in ACSF for 1 h, constantly oxygenated (95% 02 and 5% CO2) for 4 h, after which they were treated with either osteocalcin (10 ng/ml) or PBS for four hours. Expression of Tph2, TH, GAD1, GAD2, and Ddc was measured by qPCR.\nTo determine if osteocalcin acts directly on neurons to modulate neurotransmitter synthesis, several types of assays were performed. First, brainstem and midbrain explants from WT and Gprc6a^−/− mice were generated. Brains were sliced (500 μm) at the level of the median and dorsal raphe of the brainstem (from −4.04 to −4.48 mm and from −4.60 to −5.20 mm, respectively), so that they would be enriched in serotonin-producing neurons, as well as at the level of substantia nigrae and ventral tegmental areas (VTA) of the midbrain (from −1.55 to −2.35 mm and from −2.55 to −3.25 mm, respectively). Enrichment in serotoninergic and catecholaminergic neurons in these explants was verified by their high Tph2 and Th expression. While leptin, used here as a positive control, reduced, as it should, Tph2 expression in WT or Gprc6a^−/− brainstem explants, osteocalcin (3 ng/ml) increased expression of this gene 2.5 fold in both WT and Gprc6a^−/− explants. (FIG. 3D). Additionally, osteocalcin increased Th expression in midbrain explants and decreased Gad1 expression in both WT and in Gprc6a^−/− hindbrain explants (FIG. 3D). Second, the cultured WT and Gprc6a^−/− mouse primary hindbrain neurons (MPHN) were treated with osteocalcin (3 ng/ml). […] Third, to further confirm that osteocalcin signals in neurons of the hindbrain, calcium flux in MPHN treated with undercarboxylated or carboxylated osteocalcin (FIG. 3F) was measured. […] Moreover, osteocalcin inhibits the action potential frequency of the GABAergic interneurons of the hindbrain (FIG. 3H)."}, "[2]": {"system": "Osteocalcin-/- mice", "assay": "Intracerebro-ventricular (ICV) infusion in Osteocalcin-/- mice, behavioral tests", "assay_type": "in vivo, mouse", "description": "FIG. 4. Administration of osteocalcin prevents anxiety and depression. (A-E) Behavioral analyses of adult Osteocalcin^−/− mice receiving osteocalcin through intracerebro-ventricular (ICV) infusions. (A) Light and Dark test, (B) Elevated plus maze test, (C) Open field test, (D) Forced swim test, and (E) Tail suspension test performed in a cohort of WT (n=7) and Osteocalcin^−/− infused with vehicle or osteocalcin (10 ng/hour). In each set of three bars, the rightmost bar represents the results following administration of osteocalcin.\nOsteocalcin^−/−, Gprc6a^−/−, Osteocalcin-mCherry, and Osteocalcin floxed mice have been previously described (Ducy et al., 1996, Nature 382:448-452; Oury et al., 2011, Cell 144:796-809). Mouse genotypes were determined by PCR. For all experiments, controls were littermate female WT, Cre-expressing, or flox/flox. All mice were maintained on a pure 129-Sv genetic background except for the inducible deletion Osteocalcin model (mix background: 25% C57/BL6 and 75% 129sv). […] Leptin and osteocalcin content in sera and tissues were determined by ELISA.\nTail suspension testing was performed as previously described (Mayorga et al., 2001, J. Pharmacology Exper. Therapeutics 298:1101-1107; Stem et al., 1985, Psychopharmacology 85:367-370). […] The parameter recorded was the number of seconds spent immobile. Mice were scored by a highly trained observer, over a 5 min period, blind to the genotype of the mice.\nAnxiety and locomotor activity of mice were measured using the open field test (David et al., 2009, Neuron 62:479-493). […] Mice were monitored throughout each test session by video tracking and analyzed using Matlab software. […] The overall motor activity was quantified as the total distance travelled. The anxiety was quantified measuring the number of rearings and the time and distance spent in the center versus periphery of the open field chamber (in %).\nEach mouse was allowed to explore the apparatus for 5 min. Global activity was assessed by measuring the number of entries […] (David et al, 2009, Neuron 62:479-493). […]"}}}
{"molecule": "B1", "values": [{"measurement": "Tph2 expression in brainstem explants", "setting": "[1]; osteocalcin 3 ng/ml, WT and Gprc6a-/- explants", "result": 2.5, "unit": "fold"}, {"measurement": "Gad1 expression in hindbrain explants", "setting": "[1]; osteocalcin, WT and Gprc6a-/- hindbrain explants", "result": "decreased"}, {"measurement": "Th expression in midbrain explants", "setting": "[1]; osteocalcin, midbrain explants", "result": "increased"}, {"measurement": "leakage of centrally delivered hormone into the general circulation (osteocalcin in blood)", "setting": "[2]; ICV 10 ng/hour, infused Osteocalcin-/- mice", "result": "no leakage"}, {"measurement": "anxiety and depression features (DLT, EPMT, OFT, FST, TST)", "setting": "[2]; ICV 10 ng/hour, week-long treatment, Osteocalcin-/- mice", "result": "corrected the anxiety and depression features"}, {"measurement": "defects in anxiety, depression, learning, and memory", "setting": "[2]; direct administration to the brains of adult Osteocalcin-/- mice", "result": "rescued defects in anxiety, depression, learning, and memory"}]}
